Experimental data reported in paper PMC7171158.

B1: antiterminator protein Q from phage λ (λQ), full length (natural protein)
chain: MRLESVAKFHSPKSPMMSDSPRATASDSLSGTDVMAAMGMAQSQAGFGMAAFCGKHELSQNDKQKAINYLMQFAHKVSGKYRGVAKLEGNTKAKVLQVLATFAYADYCRSAATPGARCRDCHGTGRAVDIAKTELWGRVVEKECGRCKGVGYSRMPASAAYRAVTMLIPNLTQPTWSRTVKPLYDALVVQCHKEESIADNILNAVTR
B2: λQ deletion variant lacking 36 residues at the N-terminus (λQ^Δ36) (domain or fragment)
chain: AMGMAQSQAGFGMAAFCGKHELSQNDKQKAINYLMQFAHKVSGKYRGVAKLEGNTKAKVLQVLATFAYADYCRSAATPGARCRDCHGTGRAVDIAKTELWGRVVEKECGRCKGVGYSRMPASAAYRAVTMLIPNLTQPTWSRTVKPLYDALVVQCHKEESIADNILNAVTR

Target: NusA-AR2^D443C labeled with fluorescein-5-maleimide (E. coli) (UniProt P0AFF6)
Assay: fluorescence polarisation; fluorescence anisotropy; 25 nM fluorescein-labeled NusA-AR2^D443C with increasing unlabeled protein; 25 °C; 50 mM Na-P pH 6.5, 100 mM NaCl, 150 mM glucose, 5 mM DTT, 0.05% Tween; two-state binding model

| Binder | Kd [µM] |
| --- | --- |
| B1 | 268 |
| B2 | 271 |
